US20010055591A1

Assays:
[1] = biological target: Factor Xa (human) (UniProt P00742); assay: discontinuous Factor Xa inhibition assay, chromogenic substrate SpFXa
[2] = biological target: thrombin (free thrombin) (human) (UniProt P00734); assay: discontinuous thrombin inhibition assay, chromogenic substrate; no TM
[3] = biological target: thrombin (free thrombin) (human) (UniProt P00734); assay: discontinuous thrombin inhibition assay, chromogenic substrate; with 5 µg/ml heparin
[4] = biological target: trypsin; assay: discontinuous trypsin inhibition assay, chromogenic substrate SpTH

Factor Xa (human), sequence (P00742 41-179 limits assumed, form in doubt, chain 1 of 2): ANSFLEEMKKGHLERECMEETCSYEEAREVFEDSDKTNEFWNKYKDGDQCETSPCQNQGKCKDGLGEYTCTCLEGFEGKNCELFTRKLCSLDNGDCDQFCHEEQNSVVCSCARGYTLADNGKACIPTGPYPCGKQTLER
Factor Xa (human), sequence (P00742 235-488 limits assumed, form in doubt, chain 2 of 2): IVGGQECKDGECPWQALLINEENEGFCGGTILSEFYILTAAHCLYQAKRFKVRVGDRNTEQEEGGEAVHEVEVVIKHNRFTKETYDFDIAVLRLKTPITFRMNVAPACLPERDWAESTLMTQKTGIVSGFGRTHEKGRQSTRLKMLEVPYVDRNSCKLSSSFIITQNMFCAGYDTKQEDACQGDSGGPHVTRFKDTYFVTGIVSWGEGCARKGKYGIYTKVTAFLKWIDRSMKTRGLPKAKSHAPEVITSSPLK

second-order rate constant (κ2) of inhibition [1]: 990 M⁻¹ s⁻¹
second-order rate constant (κ2) of inhibition [2]: 4100 M⁻¹ s⁻¹
second-order rate constant (κ2) of inhibition [3]: 1.4e+06 M⁻¹ s⁻¹
second-order rate constant (κ2) of inhibition [4]: 17000 M⁻¹ s⁻¹
Substance: AT-neut (antithrombin H-helix mutant Asp309 to Asn, Glu310, 312, 313 to Gln) (from UniProt P01008 33-464)
